In FireProtDB (doi:10.1021/bi00010a002):

Conditions: Saccharomyces cerevisiae (strain ATCC 204508 / S288c), pH 2.1, Thermal, CD, Na2SO4-H2SO4 0.33 M
[1] = reversible: yes (>80%), structure 1YCC
[2] = reversible: yes (>70%), structure 1YCC

Chain of Cytochrome c isoform 1 F16W, P00044 (P00044 whole entry F16W, canonical isoform): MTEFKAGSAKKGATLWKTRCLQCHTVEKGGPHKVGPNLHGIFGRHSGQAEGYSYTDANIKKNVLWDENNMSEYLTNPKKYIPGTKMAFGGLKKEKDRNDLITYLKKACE
Chain of Cytochrome c isoform 1 F16Y, P00044 (P00044 whole entry F16Y, canonical isoform): as the sequence (P00044 whole entry F16W, canonical isoform) above, with W16Y counted along it
Chain of Cytochrome c isoform 1 A13Y, P00044 (P00044 whole entry A13Y, canonical isoform): as the sequence (P00044 whole entry F16W, canonical isoform) above, with A13Y, W16F counted along it
Chain of Cytochrome c isoform 1 A13L, P00044 (P00044 whole entry A13L, canonical isoform): as the sequence (P00044 whole entry F16W, canonical isoform) above, with A13L, W16F counted along it
Chain of Cytochrome c isoform 1 L100I, P00044 (P00044 whole entry L100I, canonical isoform): as the sequence (P00044 whole entry F16W, canonical isoform) above, with W16F, L100I counted along it
Chain of Cytochrome c isoform 1 Y103F, P00044 (P00044 whole entry Y103F, canonical isoform): as the sequence (P00044 whole entry F16W, canonical isoform) above, with W16F, Y103F counted along it
Chain of Cytochrome c isoform 1 wild type, P00044 (P00044 whole entry, canonical isoform): as the sequence (P00044 whole entry F16W, canonical isoform) above, with W16F counted along it

Substance	Tm [1] [°C]	change of melting temperature, mutant - wild type (higher = more stable) [1] [°C]	unfolding enthalpy (van 't Hoff) [1] [kJ/mol]	Tm [2] [°C]	change of melting temperature, mutant - wild type (higher = more stable) [2] [°C]	unfolding enthalpy (van 't Hoff) [2] [kJ/mol]	Tm (reversible: yes (>90%)) [°C]	unfolding enthalpy (van 't Hoff) (reversible: yes (>90%)) [kJ/mol]
Cytochrome c isoform 1 A13L, P00044	33.7	-1.7	159	–	–	–	–	–
Cytochrome c isoform 1 L100I, P00044	33.7	-1.7	150	–	–	–	–	–
Cytochrome c isoform 1 F16Y, P00044	–	–	–	28.4	-7	170	–	–
Cytochrome c isoform 1 Y103F, P00044	33.3	-2.1	138	–	–	–	–	–
Cytochrome c isoform 1 A13Y, P00044	36	0.6	174	–	–	–	–	–
Cytochrome c isoform 1 wild type, P00044	–	–	–	–	–	–	35.4	159
Cytochrome c isoform 1 F16W, P00044	23.1	-12.3	121	–	–	–	–	–
